The target in assay [1] is 10-amber 13-amber hoc-del soc-del T4 heads (bacteriophage T4) (UniProt P04535). In words: display of RNP on T4 heads through Soc.
For assay [2] the target is unchanged. In words: co-display with Cre-Hoc on the same T4 head.
For assay [3] the target is unchanged. In words: in vitro display on T4 heads, pelleting, SDS-PAGE densitometry against gp23* (930 copies).
Assay [4] has the same target.
For assay [5] the target is unchanged. In words: display titration on T4 heads, SDS-PAGE (FIG. 21).
Assay [6] has the same target. The experiment in a line: co-display with Cas9-gRNA RNP on the same T4 head.
Assay [7] shares this target. The experiment in a line: display on T4 heads, copies per capsid compared.
Assay [8] shares this target. The experiment in a line: Soc-TAT displayed on T4(Luci) heads used for transduction (FIG. 28).
Assay [9] has the same target. In words: display titration on T4 heads, SDS-PAGE (FIG. 20).

Where two headings read alike, the source gives them in different places.

The substance “Cas9-gRNA ribonucleoprotein (RNP) complex fused to Soc (from UniProt Q99ZW2 1-1368)” returned a copies per capsid (copies per capsid) in assay [1] of 280. Also, the copies per capsid (molecules per AV) in assay [2] came out at 270.

Cpf1-Soc (enzyme) gave a Copies/capsid (copies per capsid) in assay [3] of 450.

For the substance Cre-Hoc (enzyme), the Copies/capsid (copies per capsid) in assay [4] amounted to 95. The ratio of protein molecules to binding sites at saturation (molecules per binding site) in [5] lay in the range of 15 to 20. This substance gave a copies per capsid (molecules per AV) in assay [6] of 50.

Turning to Cre-Soc (enzyme), the Copies/capsid (copies per capsid) in [4] came out at 630.

The substance GFP-Soc (from UniProt P03715 1-80) registered a Copies/capsid (copies per capsid) in assay [4] of 660.

As to “NLS-Cas9-Soc (from UniProt Q99ZW2 1-1368) (enzyme)”, the Copies/capsid (copies per capsid) in [4] is 550.

As for RGD-Hoc (from UniProt P18056 1-376), in assay [4], the Copies/capsid (copies per capsid) was 85.

With Soc-RGD (from UniProt P03715 1-80), the Copies/capsid (copies per capsid) in [4] came out at 710. The fold copy number against RGD-Hoc in assay [7] amounted to 8.3 fold.

Consider Soc-TAT (from UniProt P03715 1-80), for which the Copies/capsid (copies per capsid) in assay [4] is 750. In assay [8], this substance gave a copies per capsid (copies per capsid) of 520.

The substance “β-Gal-Soc (from UniProt P00722 1-1024; P03715 1-80) (enzyme)” displayed a Copies/capsid (copies per capsid) in assay [4] of 320. The ratio of protein molecules to binding sites at saturation (molecules per binding site) in assay [9] is 15 to 20.
